From IntAct's records for PubMed 31515488

B1: Leukocyte receptor cluster member 1 (Homo sapiens), Q96BZ8 (parent)
chain: MNILPKKSWHVRNKDNVARVRRDEAQAREEEKERERRVLLAQQEARTEFLRKKARHQNSLPELEAAEAGAPGSGPVDLFRELLEEGKGVIRGNKEYKEEKRQEKERQEKALGILTYLGQSAAEAQTQPPWYQLPPGRGGPPPGPAPDEKIKSRLDPLREMQKHLGKKRQHGGDEGSRSRKEKEGSEKQRPKEPPSLDQLRAERLRREAAERSRAEALLARVQGRALQEGQPEEDETDDRRRRYNSQFNPQLARRPRQQDPHLTH
B2: Tripartite motif-containing protein 29 (Homo sapiens), Q14134-1 (parent)
chain: MEAADASRSNGSSPEARDARSPSGPSGSLENGTKADGKDAKTTNGHGGEAAEGKSLGSALKPGEGRSALFAGNEWRRPIIQFVESGDDKNSNYFSMDSMEGKRSPYAGLQLGAAKKPPVTFAEKGELRKSIFSESRKPTVSIMEPGETRRNSYPRADTGLFSRSKSGSEEVLCDSCIGNKQKAVKSCLVCQASFCELHLKPHLEGAAFRDHQLLEPIRDFEARKCPVHGKTMELFCQTDQTCICYLCMFQEHKNHSTVTVEEAKAEKETELSLQKEQLQLKIIEIEDEAEKWQKEKDRIKSFTTNEKAILEQNFRDLVRDLEKQKEEVRAALEQREQDAVDQVKVIMDALDERAKVLHEDKQTREQLHSISDSVLFLQEFGALMSNYSLPPPLPTYHVLLEGEGLGQSLGNFKDDLLNVCMRHVEKMCKADLSRNFIERNHMENGGDHRYVNNYTNSFGGEWSAPDTMKRYSMYLTPKGGVRTSYQPSSPGRFTKETTQKNFNNLYGTKGNYTSRVWEYSSSIQNSDNDLPVVQGSSSFSLKGYPSLMRSQSPKAQPQTWKSGKQTMLSHYRPFYVNKGNGIGSNEAP
B3: Four and a half LIM domains protein 2 (Homo sapiens), Q14192 (parent)
chain: MTERFDCHHCNESLFGKKYILREESPYCVVCFETLFANTCEECGKPIGCDCKDLSYKDRHWHEACFHCSQCRNSLVDKPFAAKEDQLLCTDCYSNEYSSKCQECKKTIMPGTRKMEYKGSSWHETCFICHRCQQPIGTKSFIPKDNQNFCVPCYEKQHAMQCVQCKKPITTGGVTYREQPWHKECFVCTACRKQLSGQRFTARDDFAYCLNCFCDLYAKKCAGCTNPISGLGGTKYISFEERQWHNDCFNCKKCSLSLVGRGFLTERDDILCPDCGKDI
partner: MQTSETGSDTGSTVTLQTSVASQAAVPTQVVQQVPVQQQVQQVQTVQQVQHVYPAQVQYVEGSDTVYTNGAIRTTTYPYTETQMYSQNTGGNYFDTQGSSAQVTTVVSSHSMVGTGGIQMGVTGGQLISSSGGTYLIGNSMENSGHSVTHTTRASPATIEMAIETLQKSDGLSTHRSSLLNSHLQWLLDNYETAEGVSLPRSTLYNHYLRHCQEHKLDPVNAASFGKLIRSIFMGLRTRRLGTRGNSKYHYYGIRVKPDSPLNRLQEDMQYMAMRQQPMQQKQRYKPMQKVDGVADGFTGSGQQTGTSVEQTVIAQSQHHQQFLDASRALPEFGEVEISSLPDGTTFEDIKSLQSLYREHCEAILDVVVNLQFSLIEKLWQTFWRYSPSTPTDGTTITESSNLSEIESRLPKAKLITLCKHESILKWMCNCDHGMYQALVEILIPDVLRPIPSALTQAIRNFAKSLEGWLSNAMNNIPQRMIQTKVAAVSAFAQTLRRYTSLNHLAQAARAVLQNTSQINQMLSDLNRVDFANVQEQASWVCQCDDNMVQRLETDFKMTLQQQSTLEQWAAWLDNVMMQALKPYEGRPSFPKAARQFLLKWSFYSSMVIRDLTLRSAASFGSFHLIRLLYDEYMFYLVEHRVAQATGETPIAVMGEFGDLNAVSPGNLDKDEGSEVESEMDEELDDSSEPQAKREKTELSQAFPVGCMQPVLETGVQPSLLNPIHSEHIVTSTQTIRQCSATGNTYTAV
B4: Placental protein 13-like (Homo sapiens), Q8TCE9 (parent)
chain: MSSLPVPYTLPVSLPVGSCVIITGTPILTFVKDPQLEVNFYTGMDEDSDIAFQFRLHFGHPAIMNSCVFGIWRYEEKCYYLPFEDGKPFELCIYVRHKEYKVMVNGQRIYNFAHRFPPASVKMLQVFRDISLTRVLISD
partner: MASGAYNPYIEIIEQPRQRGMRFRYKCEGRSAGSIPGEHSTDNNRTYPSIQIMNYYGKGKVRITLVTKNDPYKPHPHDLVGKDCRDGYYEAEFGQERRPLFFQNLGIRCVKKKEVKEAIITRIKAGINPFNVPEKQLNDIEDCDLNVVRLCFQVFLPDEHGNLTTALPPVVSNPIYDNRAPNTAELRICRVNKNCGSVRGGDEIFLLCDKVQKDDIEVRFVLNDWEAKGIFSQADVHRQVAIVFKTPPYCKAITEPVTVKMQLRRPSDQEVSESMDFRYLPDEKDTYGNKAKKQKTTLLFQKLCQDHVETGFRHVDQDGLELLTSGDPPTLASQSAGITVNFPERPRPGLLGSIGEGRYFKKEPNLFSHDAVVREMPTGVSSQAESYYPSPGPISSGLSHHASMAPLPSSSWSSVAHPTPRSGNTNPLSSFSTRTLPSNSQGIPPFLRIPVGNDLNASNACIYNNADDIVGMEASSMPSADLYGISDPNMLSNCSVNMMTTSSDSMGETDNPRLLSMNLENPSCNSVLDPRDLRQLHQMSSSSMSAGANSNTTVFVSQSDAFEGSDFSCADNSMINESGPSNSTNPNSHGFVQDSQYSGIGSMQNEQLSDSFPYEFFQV
B5: U2 small nuclear ribonucleoprotein A' (Homo sapiens), P09661 (parent)
chain: MVKLTAELIEQAAQYTNAVRDRELDLRGYKIPVIENLGATLDQFDAIDFSDNEIRKLDGFPLLRRLKTLLVNNNRICRIGEGLDQALPCLTELILTNNSLVELGDLDPLASLKSLTYLSILRNPVTNKKHYRLYVIYKVPQVRVLDFQKVKLKERQEAEKMFKGKRGAQLAKDIARRSKTFNPGAGLPTDKKKGGPSPGDVEAIKNAIANASTLAEVERLKGLLQSGQIPGRERRSGPTDDGEEEMEEDTVTNGS
B6: Arginine/serine-rich protein 1 (Homo sapiens), Q9BUV0 (parent)
chain: MSNYVNDMWPGSPQEKDSPSTSRSGGSSRLSSRSRSRSFSRSSRSHSRVSSRFSSRSRRSKSRSRSRRRHQRKYRRYSRSYSRSRSRSRSRRYRERRYGFTRRYYRSPSRYRSRSRSRSRSRGRSYCGRAYAIARGQRYYGFGRTVYPEEHSRWRDRSRTRSRSRTPFRLSEKDRMELLEIAKTNAAKALGTTNIDLPASLRTVPSAKETSRGIGVSSNGAKPELSEKVTEDGTRNPNEKPTQQRSIAFSSNNSVAKPIQKSAKAATEEASSRSPKIDQKKSPYGLWIPI
B7: Four and a half LIM domains protein 3 (Homo sapiens), Q13643 (parent)
chain: MSESFDCAKCNESLYGRKYIQTDSGPYCVPCYDNTFANTCAECQQLIGHDSRELFYEDRHFHEGCFRCCRCQRSLADEPFTCQDSELLCNDCYCSAFSSQCSACGETVMPGSRKLEYGGQTWHEHCFLCSGCEQPLGSRSFVPDKGAHYCVPCYENKFAPRCARCSKTLTQGGVTYRDQPWHRECLVCTGCQTPLAGQQFTSRDEDPYCVACFGELFAPKCSSCKRPIVGLGGGKYVSFEDRHWHHNCFSCARCSTSLVGQGFVPDGDQVLCQGCSQAGP
B8: Microtubule-associated tumor suppressor candidate 2 (Homo sapiens), Q5JR59-3 (parent)
chain: MGHCCCKPYNCLQCLDKTNESALVKEKELSIELANIRDEVAFHTAKCEKLQKEKEELERRFEDEVKRLGWQQQAELQELEERLQLQFEAEMARLQEEHGDQLLSIRCQHQEQVEDLTASHDAALLEMENNHTVAITILQDDHDHKVQELMSTHELEKKELEENFEKLRLSLQDQVDTLTFQSQSLRDRARRFEEALRKNTEEQLEIALAPYQHLEEDMKSLKQVLEMKNQQIHEQEKKILELEKLAEKNIILEEKIQVLQQQNEDLKARIDQNTVVTRQLSEENANLQEYVEKETQEKKRLSRTNEELLWKLQTGDPTSPIKLSPTSPVYRGSSSGPSSPARVSTTPR
partner: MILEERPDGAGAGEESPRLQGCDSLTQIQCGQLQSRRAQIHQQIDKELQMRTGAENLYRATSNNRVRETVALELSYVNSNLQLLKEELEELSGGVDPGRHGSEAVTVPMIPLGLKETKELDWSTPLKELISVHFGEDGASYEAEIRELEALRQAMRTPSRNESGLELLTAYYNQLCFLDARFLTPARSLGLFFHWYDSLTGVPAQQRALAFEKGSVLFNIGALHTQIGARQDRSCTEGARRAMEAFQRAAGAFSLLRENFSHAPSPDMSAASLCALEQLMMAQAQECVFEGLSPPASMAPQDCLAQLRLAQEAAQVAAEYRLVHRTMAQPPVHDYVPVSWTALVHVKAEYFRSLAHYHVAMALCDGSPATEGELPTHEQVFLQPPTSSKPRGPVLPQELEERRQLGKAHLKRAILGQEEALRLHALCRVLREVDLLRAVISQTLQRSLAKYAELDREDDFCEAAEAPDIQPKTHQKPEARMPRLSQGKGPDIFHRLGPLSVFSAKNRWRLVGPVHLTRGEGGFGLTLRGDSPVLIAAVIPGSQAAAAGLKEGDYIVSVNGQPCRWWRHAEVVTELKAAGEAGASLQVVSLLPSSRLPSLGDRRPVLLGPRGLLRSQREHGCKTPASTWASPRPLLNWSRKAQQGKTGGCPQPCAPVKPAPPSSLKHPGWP

Variants of: B1
Conditions: with cc136_human CCDC136, Q96JN2

| effect of a mutation on the interaction | Variant |
| --- | --- |
| disrupting interaction strength | R256C |

Variants of: B1
Conditions: with cep70_human CEP70, Q8NHQ1
Target sequence in this assay (Q8NHQ1 whole entry): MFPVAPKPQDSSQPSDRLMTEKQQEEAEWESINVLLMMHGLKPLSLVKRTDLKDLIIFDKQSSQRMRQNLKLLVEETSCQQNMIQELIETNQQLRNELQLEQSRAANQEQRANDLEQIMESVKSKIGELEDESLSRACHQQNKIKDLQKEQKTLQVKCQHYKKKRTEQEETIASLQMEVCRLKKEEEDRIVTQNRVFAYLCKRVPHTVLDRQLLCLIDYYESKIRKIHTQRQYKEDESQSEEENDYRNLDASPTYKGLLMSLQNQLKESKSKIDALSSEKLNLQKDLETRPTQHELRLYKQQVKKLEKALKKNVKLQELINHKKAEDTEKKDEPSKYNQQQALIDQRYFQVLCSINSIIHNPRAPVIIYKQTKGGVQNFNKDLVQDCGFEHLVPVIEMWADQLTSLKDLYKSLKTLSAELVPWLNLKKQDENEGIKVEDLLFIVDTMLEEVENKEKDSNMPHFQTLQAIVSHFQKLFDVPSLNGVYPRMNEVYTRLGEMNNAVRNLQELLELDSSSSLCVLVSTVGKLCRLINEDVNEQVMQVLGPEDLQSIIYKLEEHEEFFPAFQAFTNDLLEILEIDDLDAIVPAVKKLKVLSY

| effect of a mutation on the interaction | Variant |
| --- | --- |
| with no effect | K97Q |

Variants of: B1
Conditions: with trim1_human MID2, Q9UJV3
trim1_human MID2, Q9UJV3, sequence (Q9UJV3 whole entry): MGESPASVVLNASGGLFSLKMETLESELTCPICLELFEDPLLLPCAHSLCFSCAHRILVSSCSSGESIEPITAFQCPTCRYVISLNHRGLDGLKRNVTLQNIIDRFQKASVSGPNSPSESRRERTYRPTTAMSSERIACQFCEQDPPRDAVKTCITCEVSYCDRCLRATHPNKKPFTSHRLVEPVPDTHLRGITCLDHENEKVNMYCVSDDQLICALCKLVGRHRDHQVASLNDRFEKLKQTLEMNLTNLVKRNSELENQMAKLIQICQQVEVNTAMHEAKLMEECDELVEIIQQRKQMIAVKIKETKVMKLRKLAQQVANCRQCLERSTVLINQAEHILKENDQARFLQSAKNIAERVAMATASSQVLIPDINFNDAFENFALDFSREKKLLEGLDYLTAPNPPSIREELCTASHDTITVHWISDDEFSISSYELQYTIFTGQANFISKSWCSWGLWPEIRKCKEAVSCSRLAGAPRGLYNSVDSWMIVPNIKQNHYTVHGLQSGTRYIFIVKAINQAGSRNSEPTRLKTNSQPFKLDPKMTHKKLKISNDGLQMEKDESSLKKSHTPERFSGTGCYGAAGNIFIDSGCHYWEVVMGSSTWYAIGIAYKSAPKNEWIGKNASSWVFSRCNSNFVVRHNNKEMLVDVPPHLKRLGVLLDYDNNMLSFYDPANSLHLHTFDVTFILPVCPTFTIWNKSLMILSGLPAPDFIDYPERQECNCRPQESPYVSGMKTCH

| effect of a mutation on the interaction | Variant |
| --- | --- |
| with no effect | K97Q |

Variants of: B1
Conditions: with rop1a_human ROPN1, Q9HAT0
rop1a_human ROPN1, Q9HAT0, sequence (Q9HAT0 whole entry): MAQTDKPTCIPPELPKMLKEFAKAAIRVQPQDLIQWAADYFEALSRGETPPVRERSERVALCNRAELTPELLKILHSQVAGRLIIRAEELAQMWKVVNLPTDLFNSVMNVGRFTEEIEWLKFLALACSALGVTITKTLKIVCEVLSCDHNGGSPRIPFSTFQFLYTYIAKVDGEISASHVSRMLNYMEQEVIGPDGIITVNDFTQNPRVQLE

| effect of a mutation on the interaction | Variant |
| --- | --- |
| with no effect | K97Q |

Variants of: B1
Conditions: with ldoc1_human LDOC1, O95751
ldoc1_human LDOC1, O95751, sequence (O95751 whole entry): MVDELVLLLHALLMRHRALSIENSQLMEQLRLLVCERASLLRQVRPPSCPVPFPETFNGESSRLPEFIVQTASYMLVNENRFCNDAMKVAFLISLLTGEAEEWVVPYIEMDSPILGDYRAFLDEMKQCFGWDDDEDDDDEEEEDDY

| effect of a mutation on the interaction | Variant |
| --- | --- |
| with no effect | K97Q |

Variants of: B2
Conditions: with tri23_human TRIM23, P36406
tri23_human TRIM23, P36406, sequence (P36406 whole entry): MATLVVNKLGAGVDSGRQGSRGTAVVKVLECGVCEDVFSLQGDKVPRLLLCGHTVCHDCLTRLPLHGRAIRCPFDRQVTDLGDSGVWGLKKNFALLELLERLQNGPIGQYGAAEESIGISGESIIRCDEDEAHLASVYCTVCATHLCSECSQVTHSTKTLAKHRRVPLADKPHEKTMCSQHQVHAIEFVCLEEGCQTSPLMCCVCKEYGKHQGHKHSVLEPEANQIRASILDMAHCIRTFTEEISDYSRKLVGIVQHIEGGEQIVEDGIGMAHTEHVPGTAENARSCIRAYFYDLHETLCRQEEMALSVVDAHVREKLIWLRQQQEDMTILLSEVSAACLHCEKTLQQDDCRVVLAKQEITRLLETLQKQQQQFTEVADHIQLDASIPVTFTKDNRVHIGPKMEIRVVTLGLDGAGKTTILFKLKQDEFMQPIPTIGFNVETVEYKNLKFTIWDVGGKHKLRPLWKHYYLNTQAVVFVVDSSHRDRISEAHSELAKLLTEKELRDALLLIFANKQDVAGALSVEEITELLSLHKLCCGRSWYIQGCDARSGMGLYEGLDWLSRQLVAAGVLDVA

| effect of a mutation on the interaction | Variant |
| --- | --- |
| with no effect | S514F |

Variants of: B2
Conditions: with cep70_human CEP70, Q8NHQ1
Target sequence in this assay (Q8NHQ1 whole entry): as the sequence (Q8NHQ1 whole entry) above

| effect of a mutation on the interaction | Variant |
| --- | --- |
| disrupting interaction strength | S514F |

Variants of: B2
Conditions: with tri23_human TRIM23, P36406
Remark: another data set of the same source

| effect of a mutation on the interaction | Variant |
| --- | --- |
| with no effect | S91C |

Variants of: B2
Conditions: with cep70_human CEP70, Q8NHQ1
Remark: another data set of the same source
Target sequence in this assay (Q8NHQ1 whole entry): as above

| effect of a mutation on the interaction | Variant |
| --- | --- |
| with no effect | S91C |

Variants of: B3
Conditions: with rfx3_human RFX3, P48380

| effect of a mutation on the interaction | Variant |
| --- | --- |
| with no effect | A37S |
| with no effect | N95K |

Variants of: B4
Conditions: with rel_human REL

| effect of a mutation on the interaction | Variant |
| --- | --- |
| with no effect | M123T |

Variants of: B5
Conditions: with ru2b_human SNRPB2, P08579
ru2b_human SNRPB2, P08579, sequence (P08579 whole entry): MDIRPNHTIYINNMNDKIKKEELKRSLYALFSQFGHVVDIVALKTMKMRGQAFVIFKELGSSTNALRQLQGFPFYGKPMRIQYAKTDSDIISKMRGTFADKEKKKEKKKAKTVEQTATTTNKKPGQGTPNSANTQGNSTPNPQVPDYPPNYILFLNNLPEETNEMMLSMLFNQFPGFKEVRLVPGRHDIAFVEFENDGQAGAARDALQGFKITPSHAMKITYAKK

| effect of a mutation on the interaction | Variant |
| --- | --- |
| with no effect | S99N |
| with no effect | P32S |

Variants of: B6
Conditions: with clk2_human CLK2, P49760
clk2_human CLK2, P49760, sequence (P49760 whole entry, looked up): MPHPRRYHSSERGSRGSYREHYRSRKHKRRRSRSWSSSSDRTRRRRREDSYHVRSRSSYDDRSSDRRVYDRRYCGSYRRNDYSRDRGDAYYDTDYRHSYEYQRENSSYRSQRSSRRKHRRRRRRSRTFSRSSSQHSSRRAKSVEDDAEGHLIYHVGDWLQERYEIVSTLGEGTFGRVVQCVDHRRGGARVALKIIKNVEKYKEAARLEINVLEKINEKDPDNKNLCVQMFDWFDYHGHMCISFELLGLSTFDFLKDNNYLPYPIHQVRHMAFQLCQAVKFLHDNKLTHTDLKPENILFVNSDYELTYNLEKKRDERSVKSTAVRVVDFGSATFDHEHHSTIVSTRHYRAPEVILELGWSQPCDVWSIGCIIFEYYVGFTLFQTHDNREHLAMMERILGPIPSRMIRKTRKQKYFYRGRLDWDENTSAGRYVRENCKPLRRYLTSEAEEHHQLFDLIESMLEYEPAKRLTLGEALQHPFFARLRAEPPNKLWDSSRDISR

| effect of a mutation on the interaction | Variant |
| --- | --- |
| with no effect | V216A |
| with no effect | Y147H |
| with no effect | S20L |

Variants of: B6
Conditions: with clk3_human CLK3, P49761
clk3_human CLK3, P49761, sequence (P49761 whole entry, looked up): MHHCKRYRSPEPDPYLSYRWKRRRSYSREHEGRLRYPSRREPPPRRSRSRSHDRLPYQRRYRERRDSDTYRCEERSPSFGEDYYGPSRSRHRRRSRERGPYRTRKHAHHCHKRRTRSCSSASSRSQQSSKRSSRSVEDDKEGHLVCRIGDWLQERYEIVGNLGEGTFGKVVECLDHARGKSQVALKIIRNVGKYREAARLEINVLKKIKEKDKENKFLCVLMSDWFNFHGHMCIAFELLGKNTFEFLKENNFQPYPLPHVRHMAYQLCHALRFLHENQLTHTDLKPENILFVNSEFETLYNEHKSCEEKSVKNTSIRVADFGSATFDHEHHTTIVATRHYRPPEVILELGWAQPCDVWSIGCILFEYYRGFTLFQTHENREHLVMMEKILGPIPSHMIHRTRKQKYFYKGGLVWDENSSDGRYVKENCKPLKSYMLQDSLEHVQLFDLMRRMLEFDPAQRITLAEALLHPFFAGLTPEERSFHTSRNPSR

| effect of a mutation on the interaction | Variant |
| --- | --- |
| with no effect | V216A |
| with no effect | Y147H |
| with no effect | S20L |

Variants of: B7
Conditions: with gata2_human GATA2, P23769
gata2_human GATA2, P23769, sequence (P23769 whole entry): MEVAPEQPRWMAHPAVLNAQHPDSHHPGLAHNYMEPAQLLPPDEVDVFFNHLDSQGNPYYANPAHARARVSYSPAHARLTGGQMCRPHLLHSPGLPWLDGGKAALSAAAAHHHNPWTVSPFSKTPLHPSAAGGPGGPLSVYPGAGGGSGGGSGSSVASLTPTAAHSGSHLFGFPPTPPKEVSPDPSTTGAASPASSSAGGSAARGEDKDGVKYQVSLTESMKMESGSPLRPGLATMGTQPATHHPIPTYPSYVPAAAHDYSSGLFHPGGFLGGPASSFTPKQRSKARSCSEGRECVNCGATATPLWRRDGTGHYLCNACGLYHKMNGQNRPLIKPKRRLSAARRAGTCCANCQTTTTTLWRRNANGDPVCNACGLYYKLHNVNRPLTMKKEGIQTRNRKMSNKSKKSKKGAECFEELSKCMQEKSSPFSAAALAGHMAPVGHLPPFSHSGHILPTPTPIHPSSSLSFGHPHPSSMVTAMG

| effect of a mutation on the interaction | Variant |
| --- | --- |
| with no effect | R226H |

Variants of: B7
Conditions: with FAM90A1, Q86YD7
FAM90A1, Q86YD7, sequence (Q86YD7 whole entry): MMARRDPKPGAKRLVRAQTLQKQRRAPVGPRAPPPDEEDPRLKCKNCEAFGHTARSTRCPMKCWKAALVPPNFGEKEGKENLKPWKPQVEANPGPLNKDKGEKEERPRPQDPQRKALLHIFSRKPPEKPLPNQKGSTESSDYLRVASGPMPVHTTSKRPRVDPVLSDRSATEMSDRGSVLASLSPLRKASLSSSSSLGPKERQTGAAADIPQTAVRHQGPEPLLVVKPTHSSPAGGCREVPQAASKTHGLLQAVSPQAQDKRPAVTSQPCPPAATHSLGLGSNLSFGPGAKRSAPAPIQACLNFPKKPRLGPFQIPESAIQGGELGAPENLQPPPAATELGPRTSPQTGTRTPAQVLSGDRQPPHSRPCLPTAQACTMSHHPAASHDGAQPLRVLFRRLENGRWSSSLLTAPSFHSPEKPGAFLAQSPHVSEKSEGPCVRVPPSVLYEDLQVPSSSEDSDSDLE

| effect of a mutation on the interaction | Variant |
| --- | --- |
| with no effect | A103T |

Variants of: B8
Conditions: with rhpn1_human RHPN1, Q8TCX5

| effect of a mutation on the interaction | Variant |
| --- | --- |
| with no effect | A89V |
